Experimental data from paper PMC2632936 (Journal of molecular biology, 2008).

Tests used:
[1] = target: Vps4_(ΔMIT, E233Q) (solution experiments) (S. cerevisiae) (UniProt P52917); test: AUC
AUC = target: the molecule itself; test: AUC

stoichiometry N [1] | Molecule | Kd (AUC) [µM] | stoichiometry N (AUC)
2.19 | Vps4_(ΔMIT, E233Q) (solution experiments) (from UniProt P52917 104-437) (domain or fragment) | – | –
– | full length Vps4_(E233Q) (S. cerevisiae) (enzyme, UniProt P52917 1-437, looked up) MSTGDFLTKGIELVQKAIDLDTATQYEEAYTAYYNGLDYLMLALKYEKNPKSKDLIRAKFTEYLNRAEQLKKHLESEEANAAKKSPSAGSGSNGGNKKISQEEGEDNGGEDNKKLRGALSSAILSEKPNVKWEDVAGLEGAKEALKEAVILPVKFPHLFKGNRKPTSGILLYGPPGTGKSYLAKAVATEANSTFFSVSSSDLVSKWMGESEKLVKQLFAMARENKPSIIFIDQVDALTGTRGEGESEASRRIKTELLVQMNGVGNDSQGVLVLGATNIPWQLDSAIRRRFERRIYIPLPDLAARTTMFEINVGDTPCVLTKEDYRTLGAMTEGYSGSDIAVVVKDALMQPIRKIQSATHFKDVSTEDDETRKLTPCSPGDDGAIEMSWTDIEADELKEPDLTIKDFLKAIKSTRPTVNEDDLLKQEQFTRDFGQEGN | < 5 | 1.97
